According to patent US20210388087A1 (Chugai, published 2021):

B1: H183/L072 VL S26I (antibody, name in Kabat numbering, V domains shown)
VH: QVQLVESGGGLVQPGRSLRLSCAASGFTFSNAWMHWVRQAPGKGLEWVAQIKDKGNAYAAYYAPSVKGRFTISRDDSKNSIYLQMNSLKTEDTAVYYCHYVHYASASTVLPAFGVDAWGQGTTVTVSS
VL: DIVMTQSPLSLPVTPGEPASISCQAIQELVHMNRNTYLHWYQQKPGQAPRLLIYKVSNRFPGVPDRFSGSGSGTDFTLKISRVEAEDVGVYYCAQGTSVPFTFGQGTKLEIK
notes: Dual-Ig
B2: H183/L072 VL S52I (antibody, name in Kabat numbering, V domains shown)
VH: QVQLVESGGGLVQPGRSLRLSCAASGFTFSNAWMHWVRQAPGKGLEWVAQIKDKGNAYAAYYAPSVKGRFTISRDDSKNSIYLQMNSLKTEDTAVYYCHYVHYASASTVLPAFGVDAWGQGTTVTVSS
VL: DIVMTQSPLSLPVTPGEPASISCQASQELVHMNRNTYLHWYQQKPGQAPRLLIYKVINRFPGVPDRFSGSGSGTDFTLKISRVEAEDVGVYYCAQGTSVPFTFGQGTKLEIK
notes: Dual-Ig
B3: H183/L072 VL S52E (antibody, name in Kabat numbering, V domains shown)
VH: QVQLVESGGGLVQPGRSLRLSCAASGFTFSNAWMHWVRQAPGKGLEWVAQIKDKGNAYAAYYAPSVKGRFTISRDDSKNSIYLQMNSLKTEDTAVYYCHYVHYASASTVLPAFGVDAWGQGTTVTVSS
VL: DIVMTQSPLSLPVTPGEPASISCQASQELVHMNRNTYLHWYQQKPGQAPRLLIYKVENRFPGVPDRFSGSGSGTDFTLKISRVEAEDVGVYYCAQGTSVPFTFGQGTKLEIK
notes: Dual-Ig
B4: H183/L072 VL S52F (antibody, name in Kabat numbering, V domains shown)
VH: QVQLVESGGGLVQPGRSLRLSCAASGFTFSNAWMHWVRQAPGKGLEWVAQIKDKGNAYAAYYAPSVKGRFTISRDDSKNSIYLQMNSLKTEDTAVYYCHYVHYASASTVLPAFGVDAWGQGTTVTVSS
VL: DIVMTQSPLSLPVTPGEPASISCQASQELVHMNRNTYLHWYQQKPGQAPRLLIYKVFNRFPGVPDRFSGSGSGTDFTLKISRVEAEDVGVYYCAQGTSVPFTFGQGTKLEIK
notes: Dual-Ig
B5: H183/L072 VL S52D (antibody, name in Kabat numbering, V domains shown)
VH: QVQLVESGGGLVQPGRSLRLSCAASGFTFSNAWMHWVRQAPGKGLEWVAQIKDKGNAYAAYYAPSVKGRFTISRDDSKNSIYLQMNSLKTEDTAVYYCHYVHYASASTVLPAFGVDAWGQGTTVTVSS
VL: DIVMTQSPLSLPVTPGEPASISCQASQELVHMNRNTYLHWYQQKPGQAPRLLIYKVDNRFPGVPDRFSGSGSGTDFTLKISRVEAEDVGVYYCAQGTSVPFTFGQGTKLEIK
notes: Dual-Ig
B6: H183/L072 VL S26T (antibody, name in Kabat numbering, V domains shown)
VH: QVQLVESGGGLVQPGRSLRLSCAASGFTFSNAWMHWVRQAPGKGLEWVAQIKDKGNAYAAYYAPSVKGRFTISRDDSKNSIYLQMNSLKTEDTAVYYCHYVHYASASTVLPAFGVDAWGQGTTVTVSS
VL: DIVMTQSPLSLPVTPGEPASISCQATQELVHMNRNTYLHWYQQKPGQAPRLLIYKVSNRFPGVPDRFSGSGSGTDFTLKISRVEAEDVGVYYCAQGTSVPFTFGQGTKLEIK
notes: Dual-Ig
B7: H183/L072 VL S52A (antibody, name in Kabat numbering, V domains shown)
VH: QVQLVESGGGLVQPGRSLRLSCAASGFTFSNAWMHWVRQAPGKGLEWVAQIKDKGNAYAAYYAPSVKGRFTISRDDSKNSIYLQMNSLKTEDTAVYYCHYVHYASASTVLPAFGVDAWGQGTTVTVSS
VL: DIVMTQSPLSLPVTPGEPASISCQASQELVHMNRNTYLHWYQQKPGQAPRLLIYKVANRFPGVPDRFSGSGSGTDFTLKISRVEAEDVGVYYCAQGTSVPFTFGQGTKLEIK
notes: Dual-Ig
B8: H183/L072 VL S52K (antibody, name in Kabat numbering, V domains shown)
VH: QVQLVESGGGLVQPGRSLRLSCAASGFTFSNAWMHWVRQAPGKGLEWVAQIKDKGNAYAAYYAPSVKGRFTISRDDSKNSIYLQMNSLKTEDTAVYYCHYVHYASASTVLPAFGVDAWGQGTTVTVSS
VL: DIVMTQSPLSLPVTPGEPASISCQASQELVHMNRNTYLHWYQQKPGQAPRLLIYKVKNRFPGVPDRFSGSGSGTDFTLKISRVEAEDVGVYYCAQGTSVPFTFGQGTKLEIK
notes: Dual-Ig
B9: H183/L072 VL S52H (antibody, name in Kabat numbering, V domains shown)
VH: QVQLVESGGGLVQPGRSLRLSCAASGFTFSNAWMHWVRQAPGKGLEWVAQIKDKGNAYAAYYAPSVKGRFTISRDDSKNSIYLQMNSLKTEDTAVYYCHYVHYASASTVLPAFGVDAWGQGTTVTVSS
VL: DIVMTQSPLSLPVTPGEPASISCQASQELVHMNRNTYLHWYQQKPGQAPRLLIYKVHNRFPGVPDRFSGSGSGTDFTLKISRVEAEDVGVYYCAQGTSVPFTFGQGTKLEIK
notes: Dual-Ig
B10: H183/L072 VL S26R (antibody, name in Kabat numbering, V domains shown)
VH: QVQLVESGGGLVQPGRSLRLSCAASGFTFSNAWMHWVRQAPGKGLEWVAQIKDKGNAYAAYYAPSVKGRFTISRDDSKNSIYLQMNSLKTEDTAVYYCHYVHYASASTVLPAFGVDAWGQGTTVTVSS
VL: DIVMTQSPLSLPVTPGEPASISCQARQELVHMNRNTYLHWYQQKPGQAPRLLIYKVSNRFPGVPDRFSGSGSGTDFTLKISRVEAEDVGVYYCAQGTSVPFTFGQGTKLEIK
notes: Dual-Ig
B11: H183/L072 VL S26L (antibody, name in Kabat numbering, V domains shown)
VH: QVQLVESGGGLVQPGRSLRLSCAASGFTFSNAWMHWVRQAPGKGLEWVAQIKDKGNAYAAYYAPSVKGRFTISRDDSKNSIYLQMNSLKTEDTAVYYCHYVHYASASTVLPAFGVDAWGQGTTVTVSS
VL: DIVMTQSPLSLPVTPGEPASISCQALQELVHMNRNTYLHWYQQKPGQAPRLLIYKVSNRFPGVPDRFSGSGSGTDFTLKISRVEAEDVGVYYCAQGTSVPFTFGQGTKLEIK
notes: Dual-Ig
B12: H183/L072 VL S26N (antibody, name in Kabat numbering, V domains shown)
VH: QVQLVESGGGLVQPGRSLRLSCAASGFTFSNAWMHWVRQAPGKGLEWVAQIKDKGNAYAAYYAPSVKGRFTISRDDSKNSIYLQMNSLKTEDTAVYYCHYVHYASASTVLPAFGVDAWGQGTTVTVSS
VL: DIVMTQSPLSLPVTPGEPASISCQANQELVHMNRNTYLHWYQQKPGQAPRLLIYKVSNRFPGVPDRFSGSGSGTDFTLKISRVEAEDVGVYYCAQGTSVPFTFGQGTKLEIK
notes: Dual-Ig
B13: H183/L072 VL S52G (antibody, name in Kabat numbering, V domains shown)
VH: QVQLVESGGGLVQPGRSLRLSCAASGFTFSNAWMHWVRQAPGKGLEWVAQIKDKGNAYAAYYAPSVKGRFTISRDDSKNSIYLQMNSLKTEDTAVYYCHYVHYASASTVLPAFGVDAWGQGTTVTVSS
VL: DIVMTQSPLSLPVTPGEPASISCQASQELVHMNRNTYLHWYQQKPGQAPRLLIYKVGNRFPGVPDRFSGSGSGTDFTLKISRVEAEDVGVYYCAQGTSVPFTFGQGTKLEIK
notes: Dual-Ig
B14: H183/L072 VL S52L (antibody, name in Kabat numbering, V domains shown)
VH: QVQLVESGGGLVQPGRSLRLSCAASGFTFSNAWMHWVRQAPGKGLEWVAQIKDKGNAYAAYYAPSVKGRFTISRDDSKNSIYLQMNSLKTEDTAVYYCHYVHYASASTVLPAFGVDAWGQGTTVTVSS
VL: DIVMTQSPLSLPVTPGEPASISCQASQELVHMNRNTYLHWYQQKPGQAPRLLIYKVLNRFPGVPDRFSGSGSGTDFTLKISRVEAEDVGVYYCAQGTSVPFTFGQGTKLEIK
notes: Dual-Ig
B15: H183/L072 VL S26V (antibody, name in Kabat numbering, V domains shown)
VH: QVQLVESGGGLVQPGRSLRLSCAASGFTFSNAWMHWVRQAPGKGLEWVAQIKDKGNAYAAYYAPSVKGRFTISRDDSKNSIYLQMNSLKTEDTAVYYCHYVHYASASTVLPAFGVDAWGQGTTVTVSS
VL: DIVMTQSPLSLPVTPGEPASISCQAVQELVHMNRNTYLHWYQQKPGQAPRLLIYKVSNRFPGVPDRFSGSGSGTDFTLKISRVEAEDVGVYYCAQGTSVPFTFGQGTKLEIK
notes: Dual-Ig
B16: H183/L072 VL S26W (antibody, name in Kabat numbering, V domains shown)
VH: QVQLVESGGGLVQPGRSLRLSCAASGFTFSNAWMHWVRQAPGKGLEWVAQIKDKGNAYAAYYAPSVKGRFTISRDDSKNSIYLQMNSLKTEDTAVYYCHYVHYASASTVLPAFGVDAWGQGTTVTVSS
VL: DIVMTQSPLSLPVTPGEPASISCQAWQELVHMNRNTYLHWYQQKPGQAPRLLIYKVSNRFPGVPDRFSGSGSGTDFTLKISRVEAEDVGVYYCAQGTSVPFTFGQGTKLEIK
notes: Dual-Ig
B17: H183/L072 VL S26P (antibody, name in Kabat numbering, V domains shown)
VH: QVQLVESGGGLVQPGRSLRLSCAASGFTFSNAWMHWVRQAPGKGLEWVAQIKDKGNAYAAYYAPSVKGRFTISRDDSKNSIYLQMNSLKTEDTAVYYCHYVHYASASTVLPAFGVDAWGQGTTVTVSS
VL: DIVMTQSPLSLPVTPGEPASISCQAPQELVHMNRNTYLHWYQQKPGQAPRLLIYKVSNRFPGVPDRFSGSGSGTDFTLKISRVEAEDVGVYYCAQGTSVPFTFGQGTKLEIK
notes: Dual-Ig
B18: H183/L072 VL S26Q (antibody, name in Kabat numbering, V domains shown)
VH: QVQLVESGGGLVQPGRSLRLSCAASGFTFSNAWMHWVRQAPGKGLEWVAQIKDKGNAYAAYYAPSVKGRFTISRDDSKNSIYLQMNSLKTEDTAVYYCHYVHYASASTVLPAFGVDAWGQGTTVTVSS
VL: DIVMTQSPLSLPVTPGEPASISCQAQQELVHMNRNTYLHWYQQKPGQAPRLLIYKVSNRFPGVPDRFSGSGSGTDFTLKISRVEAEDVGVYYCAQGTSVPFTFGQGTKLEIK
notes: Dual-Ig
B19: H183/L072 VL S26K (antibody, name in Kabat numbering, V domains shown)
VH: QVQLVESGGGLVQPGRSLRLSCAASGFTFSNAWMHWVRQAPGKGLEWVAQIKDKGNAYAAYYAPSVKGRFTISRDDSKNSIYLQMNSLKTEDTAVYYCHYVHYASASTVLPAFGVDAWGQGTTVTVSS
VL: DIVMTQSPLSLPVTPGEPASISCQAKQELVHMNRNTYLHWYQQKPGQAPRLLIYKVSNRFPGVPDRFSGSGSGTDFTLKISRVEAEDVGVYYCAQGTSVPFTFGQGTKLEIK
notes: Dual-Ig
B20: H183/L072 VL S26Y (antibody, name in Kabat numbering, V domains shown)
VH: QVQLVESGGGLVQPGRSLRLSCAASGFTFSNAWMHWVRQAPGKGLEWVAQIKDKGNAYAAYYAPSVKGRFTISRDDSKNSIYLQMNSLKTEDTAVYYCHYVHYASASTVLPAFGVDAWGQGTTVTVSS
VL: DIVMTQSPLSLPVTPGEPASISCQAYQELVHMNRNTYLHWYQQKPGQAPRLLIYKVSNRFPGVPDRFSGSGSGTDFTLKISRVEAEDVGVYYCAQGTSVPFTFGQGTKLEIK
notes: Dual-Ig
B21: H183/L072 VL S26M (antibody, name in Kabat numbering, V domains shown)
VH: QVQLVESGGGLVQPGRSLRLSCAASGFTFSNAWMHWVRQAPGKGLEWVAQIKDKGNAYAAYYAPSVKGRFTISRDDSKNSIYLQMNSLKTEDTAVYYCHYVHYASASTVLPAFGVDAWGQGTTVTVSS
VL: DIVMTQSPLSLPVTPGEPASISCQAMQELVHMNRNTYLHWYQQKPGQAPRLLIYKVSNRFPGVPDRFSGSGSGTDFTLKISRVEAEDVGVYYCAQGTSVPFTFGQGTKLEIK
notes: Dual-Ig

Molecular target: T1, Human CD137 ECD (human)
T1 construct: entry includes C-terminal His-tag and biotin acceptor peptide; also called human CD137 extracellular domain; 4-1BB
Assay: Biacore SPR, vs parent H183/L072

T1 sequence (chain, as listed by the source limits assumed): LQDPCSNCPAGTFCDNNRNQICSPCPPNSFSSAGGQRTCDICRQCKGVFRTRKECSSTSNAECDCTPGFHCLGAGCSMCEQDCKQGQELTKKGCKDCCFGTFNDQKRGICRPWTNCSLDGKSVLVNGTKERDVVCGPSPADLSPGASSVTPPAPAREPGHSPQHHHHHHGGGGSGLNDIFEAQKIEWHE

Question: B1 was tested. Which “fold change of affinity” value did it give?
Answer: 0.2 fold

Question: Which “fold change of affinity” value does the source give for B2 here?
Answer: 1.4 fold

Question: B3 was tested. Which “fold change of affinity” value did it give?
Answer: 1 fold

Question: With B4 as the binder, how does the “fold change of affinity” value read?
Answer: 1.2 fold

Question: With B5 as the binder, how does the “fold change of affinity” value read?
Answer: 0.8 fold

Question: How did the “fold change of affinity” value turn out when B6 was run?
Answer: 1 fold

Question: With B7 as the binder, how does the “fold change of affinity” value read?
Answer: 1 fold

Question: With B8 as the binder, how does the “fold change of affinity” value read?
Answer: 1.2 fold

Question: For B9, which “fold change of affinity” value is on record?
Answer: 1.2 fold

Question: For B10, which “fold change of affinity” value is on record?
Answer: 0.3 fold

Question: B11 was tested. Which “fold change of affinity” value did it give?
Answer: 0.3 fold

Question: How did the “fold change of affinity” value turn out when B12 was run?
Answer: 0.7 fold

Question: How did the “fold change of affinity” value turn out when B13 was run?
Answer: 0.8 fold

Question: How did the “fold change of affinity” value turn out when B14 was run?
Answer: 1.2 fold

Question: For B15, which “fold change of affinity” value is on record?
Answer: 0.3 fold

Question: Which “fold change of affinity” value does the source give for B16 here?
Answer: 0.1 fold

Question: B17 was tested. Which “fold change of affinity” value did it give?
Answer: 0.2 fold

Question: B18 was tested. Which “fold change of affinity” value did it give?
Answer: 0.7 fold

Question: How did the “fold change of affinity” value turn out when B19 was run?
Answer: 0.5 fold

Question: How did the “fold change of affinity” value turn out when B20 was run?
Answer: 0.2 fold

Question: Which “fold change of affinity” value does the source give for B21 here?
Answer: 0.6 fold
